The record followed here is US20070258992A1.

In the assay the target is mouse synaptosomes.

With “active botulinum neurotoxin A (from UniProt P0DPI0 2-1296)”, the maximum inhibition is 78%.
